The source of these data is article PMC6817700.

The target in the data set is T1, T-box 5 (TBX5) (Homo sapiens, UniProt Q99593 1-518).
T1 sequence: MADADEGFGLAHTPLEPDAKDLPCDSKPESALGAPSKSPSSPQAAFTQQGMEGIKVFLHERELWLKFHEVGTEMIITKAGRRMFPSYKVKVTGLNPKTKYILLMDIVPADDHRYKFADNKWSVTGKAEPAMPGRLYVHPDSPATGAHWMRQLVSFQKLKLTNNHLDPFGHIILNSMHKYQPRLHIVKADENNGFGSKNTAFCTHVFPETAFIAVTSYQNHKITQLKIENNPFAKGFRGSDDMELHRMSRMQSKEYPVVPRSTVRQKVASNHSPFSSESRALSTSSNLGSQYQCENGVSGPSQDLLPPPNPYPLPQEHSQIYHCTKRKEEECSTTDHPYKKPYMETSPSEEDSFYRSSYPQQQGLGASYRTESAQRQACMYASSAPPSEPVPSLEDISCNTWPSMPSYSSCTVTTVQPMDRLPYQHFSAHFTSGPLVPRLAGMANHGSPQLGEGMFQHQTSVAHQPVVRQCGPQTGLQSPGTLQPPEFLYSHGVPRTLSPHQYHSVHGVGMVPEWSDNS
The data set is described as follows: EMSA. (In general: A gel shift assay detects complexes by their altered migration in electrophoresis.)

B1: CAGA (rs116461237 G>A) (dsDNA)
DNA 1: GCCCACCTCGGCCTCCCAAAGTTCTAGGATTACAGATGTGAGCTACC
DNA 2: GGTAGCTCACATCTGTAATCCTAGAACTTTGGGAGGCCGAGGTGGGGC
B1: the binding result is reported as “no binding”.
